Among the data in article PMC5422877 are binding values, retold here.

Data set [1] has as its target MqsA-CHis;MqsR (Pseudomonas putida KT2440;Pseudomonas putida KT2440) (UniProt Q88F94+Q88F93). The data set is described as follows: EMSA. Particulars: 10 mM HEPES pH 7.3, 20 mM KCl, 1 mM MgCl2, 5% glycerol, NP-40, poly dI-dC, 0.05 pmol biotin probe in 20 ul, 25 C, 1 h. In general terms: In EMSA bound probe runs differently from free probe, usually more slowly.
For data set [2], the target named is T1, MqsA-CHis (Pseudomonas putida KT2440) (UniProt Q88F94).
T1 sequence: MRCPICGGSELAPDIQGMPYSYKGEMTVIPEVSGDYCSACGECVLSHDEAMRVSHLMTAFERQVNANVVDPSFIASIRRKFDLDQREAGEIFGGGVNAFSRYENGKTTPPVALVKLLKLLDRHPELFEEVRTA
The data set is described as follows: EMSA. As to conditions: 10 mM HEPES pH 7.3, 20 mM KCl, 1 mM MgCl2, 5% glycerol, NP-40, poly dI-dC, 0.05 pmol biotin probe in 20 ul, 25 C, 1 h.

On to “CTATTAGCCAAATTTAACCTGGAAGGTTAATTTCTCATGGAAAAGAGAATGCCTCATTGCCCGCTGGAGCGGGTAAAAGCCCTGGCTGCGGCAAGGCGAATCCGCCCTACGGGTGCTGCATTGAAAGGCG (double strand) [PmqsRA]”, for which the binding entry in data set [1] was “no binding”; in data set [2], “binds”.
